The target in experiment [1] is binary complex of FGFR1c ligand-binding domain with murine αKlotho ectodomain (murine;human) (UniProt O35082). In words: SPR. (In general: SPR reads the build-up and loss of mass on a sensor chip optically.)
In experiment [2] the target is T1, ligand-binding domain of human FGFR1c (D142 to R365) (human, UniProt P11362 142-365).
T1 construct: range 142-365
T1 sequence (looked up): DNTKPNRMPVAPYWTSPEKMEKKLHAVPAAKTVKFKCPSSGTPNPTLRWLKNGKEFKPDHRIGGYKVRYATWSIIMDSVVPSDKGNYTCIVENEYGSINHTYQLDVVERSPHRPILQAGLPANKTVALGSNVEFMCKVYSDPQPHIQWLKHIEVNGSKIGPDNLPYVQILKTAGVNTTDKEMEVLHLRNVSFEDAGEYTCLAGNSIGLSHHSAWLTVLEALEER
In words: SPR; FGF23^C-tail immobilised on the chip, increasing concentrations of FGFR1c ligand-binding domain passed over it. The text has this: (§1) FIGS. 10A-10D show overlays of SPR sensorgrams illustrating binding of FGFR1c to FGF2 (FIG. 10A), FGF19 (FIG. 10B), FGF21 (FIG. 10C), and FGF23 (FIG. 10D), and fitted saturation binding curves. Increasing concentrations of FGFR1c ligand-binding domain were passed over a biosensor chip containing immobilized FGF2, FGF19, FGF21, or FGF23. […] Increasing concentrations of αKlotho-FGFR1c complex were passed over a biosensor chip containing immobilized FGF23. […] FGF23^C-tail was immobilized on a biosensor chip and increasing concentrations of FGFR1c ligand-binding domain were passed over the chip. Dissociation constants (KDs) given in FIGS. 10A-10E were derived from the saturation binding curves.
(§2) Surface plasmon resonance (SPR) experiments were performed on a Biacore 2000 instrument (Biacore AB), and the interactions were studied at 25° C. in HBS-EP buffer (10 mM HEPES-NaOH, pH 7.4, 150 mM NaCl, 3 mM EDTA, 0.005% (v/v) polysorbate 20). To study endocrine FGF-heparin interactions, a heparin chip was prepared by immobilizing biotinylated heparin (Sigma-Aldrich) on flow channels of a research-grade streptavidin chip (Biacore AB). The coupling density was ˜5 fmol mm⁻² of flow channel. To measure binding of chimeric FGF2 proteins to heparin, biotinylated heparin was coupled to a streptavidin chip at an approximately 4-fold lower density as judged based on the binding responses obtained for FGF1. […]

Experiment [3] concerns the target T2, ligand-binding domain of human FGFR1c (D142 to R365) (human, UniProt P11362 142-365).
T2 chain: T1 sequence (looked up)
Nature of the experiment: SPR.

Experiment [4] addresses T1, ligand-binding domain of human FGFR1c …. In words: SPR; increasing concentrations of FGFR1c ligand-binding domain passed over immobilised FGF21.
From the text: as §1, §2

The target of experiment [5] is T3, binary complex of FGFR1c ligand-binding domain with murine βKlotho ectodomain (murine; human, UniProt P11362 142-365).
T3 construct: range 142-365; also called βKlotho-FGFR1c complex; βKlotho-FGFR1c; not shown: C-terminal FLAG tag
T3 sequence 1: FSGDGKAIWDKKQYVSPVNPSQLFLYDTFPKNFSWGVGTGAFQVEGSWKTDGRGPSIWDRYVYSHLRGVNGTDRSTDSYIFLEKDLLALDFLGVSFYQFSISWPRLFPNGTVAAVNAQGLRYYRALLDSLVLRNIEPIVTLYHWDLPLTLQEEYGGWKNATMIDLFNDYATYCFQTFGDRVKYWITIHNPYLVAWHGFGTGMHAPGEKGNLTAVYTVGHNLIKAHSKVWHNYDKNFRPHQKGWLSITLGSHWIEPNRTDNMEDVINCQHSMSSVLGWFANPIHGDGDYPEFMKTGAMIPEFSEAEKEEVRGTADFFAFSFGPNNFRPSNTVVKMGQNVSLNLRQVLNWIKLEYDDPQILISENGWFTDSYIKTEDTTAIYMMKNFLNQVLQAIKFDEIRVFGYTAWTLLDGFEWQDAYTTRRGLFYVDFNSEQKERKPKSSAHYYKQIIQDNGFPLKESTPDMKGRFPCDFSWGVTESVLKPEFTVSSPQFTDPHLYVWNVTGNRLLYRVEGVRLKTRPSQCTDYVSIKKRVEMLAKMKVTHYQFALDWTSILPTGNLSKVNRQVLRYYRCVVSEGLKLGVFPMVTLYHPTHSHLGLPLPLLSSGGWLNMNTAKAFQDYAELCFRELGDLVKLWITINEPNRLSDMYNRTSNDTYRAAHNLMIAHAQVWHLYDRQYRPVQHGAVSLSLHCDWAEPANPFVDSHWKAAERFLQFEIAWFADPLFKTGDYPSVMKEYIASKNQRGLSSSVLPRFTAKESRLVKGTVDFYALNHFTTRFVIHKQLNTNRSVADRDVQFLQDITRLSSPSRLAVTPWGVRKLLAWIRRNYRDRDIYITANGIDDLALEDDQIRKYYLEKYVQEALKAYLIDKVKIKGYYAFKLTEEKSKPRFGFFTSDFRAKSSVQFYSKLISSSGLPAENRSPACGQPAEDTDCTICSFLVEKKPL
T3 sequence 2: T1 sequence (looked up)
In words: SPR competition; FGF21 in solution mixed with βKlotho-FGFR1c complex, passed over immobilised FGF21. The source says: To this end, a SPR-based binding competition assay was employed. FGF23 was immobilized onto a SPR biosensor chip, and mixtures of a fixed concentration of binary αKlotho-FGFR1c complex with increasing concentrations of FGF2^ΔHBScore-FGF23^C-tail chimera were passed over the chip. […] To test whether the FGF2^ΔHBScore-FGF21^C-tail chimera can likewise form a ternary complex with FGFR1c and βKlotho, FGF21 was coupled to a SPR biosensor chip, and mixtures of the binary βKlotho-FGFR1c complex with FGF2^ΔHBScore-FGF21^C-tail were passed over the chip. […] To further confirm the binding specificity of the FGF2^ΔHBScore-FGF23^C-tail chimera for the αKlotho-FGFR1c complex, FGF2^ΔHBScore-FGF23^C-tail and βKlotho-FGFR1c complex were mixed at a molar ratio of 10:1, and the mixture was injected over a chip containing immobilized FGF21. […] For the FGF2^ΔHBScore-FGF21^C-tail chimera, we investigated whether it is able to activate FGFR1c in a βKlotho-dependent fashion in cells. HEK293 cells were transfected with βKlotho and then stimulated with FGF2^ΔHBScore-FGF21^C-tail or FGF21.

For experiment [6], the target named is T1, ligand-binding domain of human FGFR1c …. In words: SPR; increasing concentrations of FGFR1c ligand-binding domain passed over immobilised FGF23.
From the text: as §1, §2

Experiment [7] concerns the target T4, binary complex of FGFR1c ligand-binding domain with murine αKlotho ectodomain (murine; human, UniProt O35082 35-982; P11362 142-365).
T4 construct: range 35-982;range 142-365; αKlotho ectodomain was expressed in HEK293 cells; also called αKlotho-FGFR1c complex; αKlotho-FGFR1c; not shown: C-terminal FLAG tag
T4 sequence (looked up) 1: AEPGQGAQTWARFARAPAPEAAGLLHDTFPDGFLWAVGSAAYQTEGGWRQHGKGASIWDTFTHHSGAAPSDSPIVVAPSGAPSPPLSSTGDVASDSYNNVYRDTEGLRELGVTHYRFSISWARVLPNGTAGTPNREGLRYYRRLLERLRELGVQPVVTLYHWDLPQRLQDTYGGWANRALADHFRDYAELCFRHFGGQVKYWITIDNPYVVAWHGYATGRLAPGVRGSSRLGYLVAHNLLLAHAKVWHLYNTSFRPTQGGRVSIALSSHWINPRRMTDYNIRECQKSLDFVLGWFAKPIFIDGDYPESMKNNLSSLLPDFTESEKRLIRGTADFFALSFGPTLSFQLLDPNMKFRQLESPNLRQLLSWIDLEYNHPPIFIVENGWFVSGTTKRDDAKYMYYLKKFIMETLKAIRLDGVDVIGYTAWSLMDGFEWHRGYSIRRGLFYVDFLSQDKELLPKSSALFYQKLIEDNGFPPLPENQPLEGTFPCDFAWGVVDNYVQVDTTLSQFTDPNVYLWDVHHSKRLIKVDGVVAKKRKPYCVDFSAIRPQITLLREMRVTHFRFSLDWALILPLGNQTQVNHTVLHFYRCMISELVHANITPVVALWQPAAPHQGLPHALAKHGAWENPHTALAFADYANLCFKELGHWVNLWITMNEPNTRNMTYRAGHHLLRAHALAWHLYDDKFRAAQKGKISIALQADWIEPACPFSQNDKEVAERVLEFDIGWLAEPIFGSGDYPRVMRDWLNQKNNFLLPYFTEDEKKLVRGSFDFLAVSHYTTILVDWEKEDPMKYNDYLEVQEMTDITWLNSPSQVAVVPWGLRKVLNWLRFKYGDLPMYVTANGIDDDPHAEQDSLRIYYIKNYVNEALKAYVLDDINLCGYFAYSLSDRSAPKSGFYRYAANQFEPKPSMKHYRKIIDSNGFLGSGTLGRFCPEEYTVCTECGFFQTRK
T4 sequence (looked up) 2: T1 sequence (looked up)
In words: SPR; FGFR1c ligand-binding domain or αKlotho-FGFR1c complex passed over immobilised FGF23 (FIGS. 10D and 10E).
From the text: as §1, §2

This is an account of results in US20130331317A1 (NEW YORK UNIVERSITY, published 2013).

Where only a bound is given, the exact number is not on record here.

On to “human FGF23 (Y25 to I251), N-terminally hexahistidine-tagged mature form, with R176Q/R179Q (from UniProt Q9GZV9 25-251)”, for which, in experiment [1], the Kd (as a rule, the constant that tells how readily two partners part at equilibrium) was 27.4 nM.

B1: N-terminally hexahistidine-tagged C-terminal tail peptide of FGF23 (S180 to I251) (peptide)
peptide: SAEDDSERDPLNVLKPRARMTPAPASCSQELPSAEDNSPMASDPLGVVRGGRVNTHAGGTGPEGCRPFAKFI
notes: also called FGF23^C-tail; not shown: N-terminal hexahistidine tag
Regarding B1, the binding result in experiment [2] is “no binding”.

B2: human FGF21 (H29 to S209), N-terminally hexahistidine-tagged mature form (ligand)
chain: HPIPDSSPLLQFGGQVRQRYLYTDDAQQTEAHLEIREDGTVGGAADQSPESLLQLKALKPGVIQILGVKTSRFLCQRPDGALYGSLHFDPEACSFRELLLEDGYNVYQSEAHGLPLHLPGNKSPHRDPAPRGPARFLPLPGLPPALPEPPGILAPQPPDVGSSDPLSMVGPSQGRSPSYAS
notes: also called native FGF21; not shown: N-terminal hexahistidine tag
With B2, in experiment [3], the Kd worked out at 2520 nM. The binding result in experiment [4] and in experiment [5] was “binds” each time.

B3: human FGF23 (Y25 to I251), N-terminally hexahistidine-tagged mature form, with R176Q/R179Q (ligand)
chain: YPNASPLLGSSWGGLIHLYTATARNSYHLQIHKNGHVDGAPHQTIYSALMIRSEDAGFVVITGVMSRRYLCMDFRGNIFGSHYFDPENCRFQHQTLENGYDVYHSPQYHFLVSLGRAKRAFLPGMNPPPYSQFLSRRNEIPLIHFNTPIPRQHTQSAEDDSERDPLNVLKPRARMTPAPASCSQELPSAEDNSPMASDPLGVVRGGRVNTHAGGTGPEGCRPFAKFI
notes: also called native FGF23; wild-type FGF23; not shown: N-terminal hexahistidine tag
B3 registered an equilibrium dissociation constant (Kd) in experiment [3] of 648 nM. Besides, the binding result in experiment [6] is listed as “binds”. For the same molecule, the “fold enhancement of affinity (αKlotho-FGFR1c complex against FGFR1c alone)” value in experiment [7] is greater than 20 fold.
